Molecular target: T1, 6xHis-PBL34 (Arabidopsis thaliana, UniProt Q9LFP7 1-493)
T1 construct: also called 6x His-tagged PBL34 fusion protein; source: E. coli BL21(DE3)-VR2-pACYC-LamP, purified (HisPur cobalt resin); not shown: 6xHis, N-terminal, kept
T1 sequence (looked up): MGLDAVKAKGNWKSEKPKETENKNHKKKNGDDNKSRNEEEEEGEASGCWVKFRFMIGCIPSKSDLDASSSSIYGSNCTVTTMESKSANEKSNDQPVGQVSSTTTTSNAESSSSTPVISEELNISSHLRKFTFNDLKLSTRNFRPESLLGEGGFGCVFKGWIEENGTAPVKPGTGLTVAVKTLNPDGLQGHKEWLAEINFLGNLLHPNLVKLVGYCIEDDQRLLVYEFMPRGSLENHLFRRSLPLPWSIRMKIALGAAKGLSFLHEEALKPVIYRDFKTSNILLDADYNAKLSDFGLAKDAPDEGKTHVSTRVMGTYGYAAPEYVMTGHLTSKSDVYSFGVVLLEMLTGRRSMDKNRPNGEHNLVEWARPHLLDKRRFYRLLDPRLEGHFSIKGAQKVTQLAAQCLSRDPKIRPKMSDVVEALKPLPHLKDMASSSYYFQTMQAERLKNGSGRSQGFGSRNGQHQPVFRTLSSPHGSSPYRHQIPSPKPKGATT
Test: pull-down; in vitro pulldown with amylose beads; MBP fusion protein as bait, 6xHis-PBL34 detected by Western blot
Conditions: both partners purified

binding result: binds
B1: 6xHis-MBP-BRX (natural protein, Arabidopsis thaliana, UniProt Q17TI5 1-344, looked up)
chain: MFSCIACTKADGGEEVEHGARGGTTPNTKEAVKSLTIQIKDMALKFSGAYKQCKPCTGSSSSPLKKGHRSFPDYDNASEGVPYPFMGGSAGSTPAWDFTNSSHHPAGRLESKFTSIYGNDRESISAQSCDVVLDDDGPKEWMAQVEPGVHITFASLPTGGNDLKRIRFSREMFDKWQAQRWWGENYDKIVELYNVQRFNRQALQTPARSDDQSQRDSTYSKMDSARESKDWTPRHNFRPPGSVPHHFYGGSSNYGPGSYHGGPPMDAARTTTSSRDDPPSMSNASEMQAEWIEEDEPGVYITIRQLSDGTRELRRVRFSRERFGEVHAKTWWEQNRERIQTQYL
notes: source: E. coli BL21(DE3) Rosetta pLysS, purified (HisPur cobalt resin); not shown: MBP, N-terminal, kept

Reference: article PMC9879999, “A phosphoinositide hub connects CLE peptide signaling and polar auxin efflux regulation” (Nature Communications, 2023)
